Measured values from article PMC3847938, “Biochemical and kinetic characterisation of a novel xylooligosaccharide-upregulated GH43 β-D-xylosidase/α-L-arabinofuranosidase (BXA43) from the probiotic Bifidobacterium animalis subsp. lactis BB-12” (AMB Express, 2013).
Each block holds one molecule with its values, some of them ahead of it.

Experiments:
BXA43 = target: T1, BXA43 (Bifidobacterium animalis, UniProt B8DTK7); test: p-nitrophenol release at […] nm, initial rates, fit with substrate inhibition; format: biochemical; conditions: 50 mM Na-acetate pH 5.2, 40 °C; substrate inhibition by pNPX itself (uncompetitive), second site
T1 construct: gene xynB; full-length ORF 541 residues, C-terminal His-tag, pET24(+), E. coli BL21(DE3); theoretical mass 61,774 Da, about 62 kDa on SDS-PAGE
T1 sequence (B8DTK7 1-541): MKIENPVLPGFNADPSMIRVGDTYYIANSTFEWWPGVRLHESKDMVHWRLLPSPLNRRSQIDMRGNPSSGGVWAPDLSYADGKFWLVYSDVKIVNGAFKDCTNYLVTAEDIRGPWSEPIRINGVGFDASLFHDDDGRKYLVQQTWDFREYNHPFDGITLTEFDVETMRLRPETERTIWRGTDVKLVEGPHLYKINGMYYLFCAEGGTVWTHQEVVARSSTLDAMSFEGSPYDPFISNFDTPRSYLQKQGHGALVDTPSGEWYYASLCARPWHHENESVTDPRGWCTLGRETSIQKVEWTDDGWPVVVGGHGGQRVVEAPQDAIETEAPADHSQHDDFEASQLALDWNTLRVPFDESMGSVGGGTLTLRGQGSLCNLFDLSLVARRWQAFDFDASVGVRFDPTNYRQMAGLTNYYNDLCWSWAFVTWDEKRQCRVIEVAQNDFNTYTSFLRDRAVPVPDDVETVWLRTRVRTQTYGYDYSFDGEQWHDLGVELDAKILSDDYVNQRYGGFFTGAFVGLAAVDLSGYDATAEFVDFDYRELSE

purified protein = substrate: O=[N+]([O-])c1ccc(O[C@@H]2OC[C@@H](O)[C@H](O)[C@H]2O)cc1; test: purified protein; format: biochemical, Bifidobacterium animalis; conditions: 50 mM Na-acetate pH 5.2, 40 °C, 0.25–80 mM pNPX, 7.8 nM enzyme, error printed as ± 4.6

Ki (BXA43): 29.6 ± 8.5 mM
Molecule: O=[N+]([O-])c1ccc(O[C@@H]2OC[C@@H](O)[C@H](O)[C@H]2O)cc1 [para-nitrophenyl-β-D-xylopyranoside]

B1: BXA43 (Bifidobacterium animalis subsp. lactis AD011) (protein)
chain: T1 sequence (B8DTK7 1-541)
notes: full-length ORF 541 residues, C-terminal His-tag, pET24(+), E. coli BL21(DE3); theoretical mass 61,774 Da, about 62 kDa on SDS-PAGE
Km (purified protein): 15.6 ± 4.2 mM
kcat (purified protein): 60.6 ± 10.8 s⁻¹
